Fewer inactive variants are shown than the library holds. A value given as a limit tells only on which side of the number the result lay.

Data on 83 variants can be found in the RNAGym collection of RNA variant scans (doi:10.1073/pnas.2313332121).

To fix the notation:
B1: TPR 5TU (parent)
chain: GGAUCUUCUCGAUCUAACAAAAAAGACAAAUCUGCCACAAAGCUUGAGAGCAUCUUCGGAUGCAGAGGCGGCAGCCUUCGGUGGCGCGAUAGCGCCAACGUUCUCAACUAUGACACGCAAAACGCGUGCUCCGUUGAAUGGAGUUUAUCAUG

The data set covers variants of B1. Nature of the data set: polymerase ribozyme fitness, log enrichment relative to wild type (log ratio); higher = more active; in vitro selection for triplet polymerase activity. Summed up:
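In triplicate, a single round of in vitro selection was run on each mutant library, PCR-built and transcribed, covering one subunit of a heterodimeric triplet polymerase ribozyme. Frozen incubation at −7 °C followed annealing with a biotinylated primer, partner subunit and triplets, and extended constructs were then gel-excised, streptavidin-captured and taken through RT-PCR. Fitness is the logarithm of genotype enrichment over wild-type enrichment, from inverse-variance-weighted replicate averages of Illumina-sequenced inputs and outputs. […] only genotypes with ≥10 input reads and ≥1 read per output were kept.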
A39U C54U U55G C93U C103U: the “polymerase ribozyme fitness (log ratio)” value is not above -4.2.

Take A40C G143A: the “polymerase ribozyme fitness (log ratio)” value is -0.684.

A39G G117C: the “polymerase ribozyme fitness (log ratio)” value was -1.91.

Consider A39U C93A C105G A113U C114G, for which the “polymerase ribozyme fitness (log ratio)” value was not above -4.2.

A40C G94U C129G U139A G141U U146C: the “polymerase ribozyme fitness (log ratio)” value was not above -4.2.

Take A40C A49U C57A C76A U82C G94U: the “polymerase ribozyme fitness (log ratio)” value was not above -4.2.

Turning to A39G C105G, the “polymerase ribozyme fitness (log ratio)” value is -3.19.

Consider A39U A40U A91U C95G, for which the “polymerase ribozyme fitness (log ratio)” value was not above -4.2.

As for A39C U44G C75U C95U A119U G128U, the “polymerase ribozyme fitness (log ratio)” value is not above -4.2.

For the variant A40C C69G G80A, the “polymerase ribozyme fitness (log ratio)” value is -0.716.

On to A39G C57A C87U, for which the “polymerase ribozyme fitness (log ratio)” value is -1.73.

Consider A40G C85A G133C G136A, for which the “polymerase ribozyme fitness (log ratio)” value was -3.86.

Turning to A40C C96G A119G, the “polymerase ribozyme fitness (log ratio)” value is 0.217.

Consider A39G C103G G126U, for which the “polymerase ribozyme fitness (log ratio)” value is not above -4.2.

For A40C G100U U102G U135A, the “polymerase ribozyme fitness (log ratio)” value is not above -4.2.

For the variant A39U C51U U61G A89U, the “polymerase ribozyme fitness (log ratio)” value was not above -4.2.

With A39U U45C C93U, the “polymerase ribozyme fitness (log ratio)” value was not above -4.2.

Take A40C C57U A60G U61A: the “polymerase ribozyme fitness (log ratio)” value is -2.29.

Consider A39G G42C A47C A91U C93U U101G A119U C125U G133U G136A, for which the “polymerase ribozyme fitness (log ratio)” value is not above -4.2.

In the case of A40C U53A, the “polymerase ribozyme fitness (log ratio)” value stood at 0.24.

With A40C A52C G86A A98G, the “polymerase ribozyme fitness (log ratio)” value was -2.37.

With A40G A91G A115G C116G A142C, the “polymerase ribozyme fitness (log ratio)” value is not above -4.2.

As to A39U A64U C87G, the “polymerase ribozyme fitness (log ratio)” value was not above -4.2.

As to A39U A60U G81A C85A C93U, the “polymerase ribozyme fitness (log ratio)” value was not above -4.2.

For the variant A40C A52U G68C C85A G128C, the “polymerase ribozyme fitness (log ratio)” value is not above -4.2.

Take A40G C85U: the “polymerase ribozyme fitness (log ratio)” value was -2.16.

As to A40G A52G A91C A119U G128A, the “polymerase ribozyme fitness (log ratio)” value was not above -4.2.

Turning to A39U C54U U61A C93U A106U, the “polymerase ribozyme fitness (log ratio)” value is not above -4.2.

A39G G84A C116U: the “polymerase ribozyme fitness (log ratio)” value was -1.91.

On to A39G C57A C99G, for which the “polymerase ribozyme fitness (log ratio)” value was -3.15.

In the case of A40G A47G U144G, the “polymerase ribozyme fitness (log ratio)” value was -2.26.

With A39G A147U, the “polymerase ribozyme fitness (log ratio)” value is -0.693.

On to A39U A49C A137G, for which the “polymerase ribozyme fitness (log ratio)” value was not above -4.2.

Consider A39G C87U A147C C149A, for which the “polymerase ribozyme fitness (log ratio)” value was not above -4.2.

Turning to A40G C105U A115U A138G, the “polymerase ribozyme fitness (log ratio)” value is not above -4.2.

Take A40C A52G C79A C85U C99A A106G A142U G152U: the “polymerase ribozyme fitness (log ratio)” value is not above -4.2.

On to A39U C118U, for which the “polymerase ribozyme fitness (log ratio)” value was -2.03.

For A40C G83C, the “polymerase ribozyme fitness (log ratio)” value amounted to 0.449.

As to A39U G46C G48A G50C U56A G84U, the “polymerase ribozyme fitness (log ratio)” value is not above -4.2.

On to A40C G92C, for which the “polymerase ribozyme fitness (log ratio)” value is -1.84.

For the variant A40C A41C A49C A91U, the “polymerase ribozyme fitness (log ratio)” value is not above -4.2.

In the case of A39U C69A G74C C76U C87A, the “polymerase ribozyme fitness (log ratio)” value is not above -4.2.

With A40C A98G C131U U134A, the “polymerase ribozyme fitness (log ratio)” value was -2.13.

For the variant A40C U55G G58A U130A U135C, the “polymerase ribozyme fitness (log ratio)” value was not above -4.2.

As for A39G U77A G143C, the “polymerase ribozyme fitness (log ratio)” value is not above -4.2.

Take A39C U55A C118U: the “polymerase ribozyme fitness (log ratio)” value is -2.2.

In the case of A40C C96U A122G G124C, the “polymerase ribozyme fitness (log ratio)” value is -0.809.

Regarding A39G G70A U77G G141A A142C, the “polymerase ribozyme fitness (log ratio)” value was not above -4.2.

In the case of A40C G48C G81U C85A, the “polymerase ribozyme fitness (log ratio)” value was -1.52.

As to A39U A47U C96U A122G G124A, the “polymerase ribozyme fitness (log ratio)” value is -3.16.

As for A40G C76U C95U C116G, the “polymerase ribozyme fitness (log ratio)” value is -3.42.

With A39G A97U, the “polymerase ribozyme fitness (log ratio)” value is -2.96.

Turning to A39U A89G G126U, the “polymerase ribozyme fitness (log ratio)” value is -3.58.

Regarding A40G G58C C87A C103G A110U U135A, the “polymerase ribozyme fitness (log ratio)” value is not above -4.2.

In the case of A39G G88C A91U G136U, the “polymerase ribozyme fitness (log ratio)” value is not above -4.2.

As to A40C U44G C63U C95U C103G A115G A142C, the “polymerase ribozyme fitness (log ratio)” value is not above -4.2.

Regarding A39U G74U G81C A91U A98G C99U G124A, the “polymerase ribozyme fitness (log ratio)” value was not above -4.2.

As to A40C G92A U109C G141U, the “polymerase ribozyme fitness (log ratio)” value is not above -4.2.

For the variant A40G C149A, the “polymerase ribozyme fitness (log ratio)” value is -3.98.

With A39G G59C G71A U101C A115G G140U, the “polymerase ribozyme fitness (log ratio)” value was not above -4.2.

In the case of A40C C75U C116U A119C, the “polymerase ribozyme fitness (log ratio)” value was -1.75.

Turning to A40C C63U U82G G83C C96G A120C A121U U144A, the “polymerase ribozyme fitness (log ratio)” value is -0.868.

With A40C A47C C93A A137G U146C, the “polymerase ribozyme fitness (log ratio)” value is -4.13.

For the variant A40C A97U, the “polymerase ribozyme fitness (log ratio)” value is -0.185.

With A40C A97C, the “polymerase ribozyme fitness (log ratio)” value stood at 1.5.

With A39U G74A C85U A91C C125A, the “polymerase ribozyme fitness (log ratio)” value is not above -4.2.

Regarding A40C C54A A89U G94U, the “polymerase ribozyme fitness (log ratio)” value is -2.57.

Consider A39G G94C, for which the “polymerase ribozyme fitness (log ratio)” value is -2.32.

For the variant A39C G133C U146A, the “polymerase ribozyme fitness (log ratio)” value is -3.57.

As to A39G C51U A52U G74A, the “polymerase ribozyme fitness (log ratio)” value was not above -4.2.

Take A39G G83A G141C: the “polymerase ribozyme fitness (log ratio)” value was -3.09.

With A40C C87A, the “polymerase ribozyme fitness (log ratio)” value was -3.55.

Consider A40C C87U, for which the “polymerase ribozyme fitness (log ratio)” value is -0.91.

For A40C C76U C95A C131G G141U, the “polymerase ribozyme fitness (log ratio)” value is -1.68.

As to A39G U53A G58C C72G C95G C103G, the “polymerase ribozyme fitness (log ratio)” value was not above -4.2.

On to A39U U61C C96A, for which the “polymerase ribozyme fitness (log ratio)” value is -3.93.

As for A40C C93A C99U G133C, the “polymerase ribozyme fitness (log ratio)” value is -3.98.

Take A39U A41C A98G: the “polymerase ribozyme fitness (log ratio)” value was -2.72.

Consider A40C G83A A97G, for which the “polymerase ribozyme fitness (log ratio)” value is -1.2.

As for A39C G141U, the “polymerase ribozyme fitness (log ratio)” value is -2.91.

Regarding A39G A73G U109A A119U, the “polymerase ribozyme fitness (log ratio)” value was -3.91.

For A40C G46C C57A G74C C103A A107U C118G U134G G140C, the “polymerase ribozyme fitness (log ratio)” value was not above -4.2.

Regarding A40C A113U C118U G136A, the “polymerase ribozyme fitness (log ratio)” value is -2.68.
